Source: patent publication US20150011730A1 (UNIVERSITY OF SOUTH CAROLINA, published 2015)
Where two headings read alike, the source gives them in different places. Non-standard residues stand in square brackets, D forms with d. No end group written: not given here. *: point of attachment. X1 = 1‑(3,5-dichlorophenyl)‑5‑methyl‑1H‑1,2,4‑triazole‑3‑carbonyl, Cc1nc(C(=O)*)nn1-c1cc(Cl)cc(Cl)c1; Pyrazole N‑cap (R1 OCH3, R2 H, R3 H, R4 CH3, W N, X N, Y C, Z C) = not defined here; Pyrazole N‑cap (R1 Cl, R2 H, R3 Cl, R4 CH3, W N, X N, Y C, Z C) = not defined here; Pyrazole N‑cap (R1 Cl, R2 H, R3 H, R4 CH3, W N, X N, Y C, Z C) = not defined here; Pyrazole N‑cap (R1 F, R2 H, R3 H, R4 CH3, W N, X N, Y C, Z C) = not defined here; Pyrazole N‑cap (R1 H, R2 H, R3 H, R4 CH3, W N, X N, Y C, Z C) = not defined here; benzoic acid Scaffold III (R1 H, R2 CHEM-US-00025 C6H13NO) = not defined here; benzoic acid Scaffold III (R1 H, R2 CHEM-US-00026 C5H12N2) = not defined here; 3‑phenoxybenzylamide = c1ccc(Oc2cccc(CN*)c2)cc1; Ala(2-furyl) = N[C@@H](Cc1ccco1)C(=O)O; Cha = N[C@@H](CC1CCCCC1)C(=O)O; β3hL = CC(C)C[C@H](N)CC(=O)O

Tests used:
[1] = molecular target: T1, CDK2/Cyclin A2, full-length recombinant, N-terminal GST tag on both proteins (UniProt P24941 1-298; P20248 1-432); assay: cell-based or functional assay
[2] = molecular target: T2, CDK2/cyclin A (as used in the binding assay) (UniProt P24941 1-298; P20248 1-432)
[3] = molecular target: T3, CDK4/cyclin D1 (as used in the binding assay) (UniProt P11802 1-303; P24385 1-295); assay: FP binding assay
T3 construct: kept apart from the GST-tagged kinase-assay complex m2; also called CDK4/D1
T3 sequence (P11802 whole entry, chain 1 of 2): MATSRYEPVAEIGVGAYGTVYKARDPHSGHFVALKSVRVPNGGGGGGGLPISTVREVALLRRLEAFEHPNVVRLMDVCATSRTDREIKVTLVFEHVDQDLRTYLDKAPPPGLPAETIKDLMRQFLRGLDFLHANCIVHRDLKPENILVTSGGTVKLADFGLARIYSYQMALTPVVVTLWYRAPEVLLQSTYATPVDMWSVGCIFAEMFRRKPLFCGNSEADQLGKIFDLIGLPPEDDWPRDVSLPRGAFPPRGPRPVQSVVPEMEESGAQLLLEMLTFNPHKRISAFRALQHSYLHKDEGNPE
T3 sequence (P24385 whole entry, chain 2 of 2): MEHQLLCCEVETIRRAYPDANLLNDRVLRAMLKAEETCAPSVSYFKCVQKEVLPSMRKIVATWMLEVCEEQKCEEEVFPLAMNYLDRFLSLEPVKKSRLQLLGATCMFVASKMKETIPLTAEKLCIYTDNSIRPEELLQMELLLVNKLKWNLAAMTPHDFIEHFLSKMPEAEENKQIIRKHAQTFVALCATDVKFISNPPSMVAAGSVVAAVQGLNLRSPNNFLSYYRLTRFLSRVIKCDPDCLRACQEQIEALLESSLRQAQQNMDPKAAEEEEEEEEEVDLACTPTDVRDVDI

[4] = molecular target: T2, CDK2/cyclin A (as used in the binding …); assay: FP binding assay
[5] = molecular target: T3, CDK4/cyclin D1 (as used in the binding …)
[6] = molecular target: T4, CDK4/Cyclin D1, full-length recombinant, N-terminal GST tag on both proteins (UniProt P11802 2-303; P24385 1-295); assay: cell-based or functional assay
T4 sequence (P11802 2-303, chain 1 of 2): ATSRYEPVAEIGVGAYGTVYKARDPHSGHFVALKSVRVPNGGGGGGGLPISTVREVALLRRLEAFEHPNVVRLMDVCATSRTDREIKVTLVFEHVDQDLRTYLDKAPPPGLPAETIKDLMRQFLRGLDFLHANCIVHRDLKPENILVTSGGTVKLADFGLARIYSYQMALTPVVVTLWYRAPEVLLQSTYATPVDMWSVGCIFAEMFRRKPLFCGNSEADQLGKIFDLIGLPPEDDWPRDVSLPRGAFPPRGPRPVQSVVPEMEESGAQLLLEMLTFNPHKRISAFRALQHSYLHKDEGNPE
T4 sequence (P24385 whole entry, chain 2 of 2): as the sequence (P24385 whole entry, chain 2 of 2) above

CDK2/E = CDK2/E (UniProt P24941 1-298; P24864 1-410); assay: cell-based or functional assay
[7] = molecular target: T2, CDK2/cyclin A (as used in the binding …); assay: binding assay
[8] = molecular target: T3, CDK4/cyclin D1 (as used in the binding …); remark: listed apart in the source
[9] = molecular target: T1, CDK2/Cyclin A2, full-length …; assay: cell-based or functional assay; remark: listed apart in the source
[10] = molecular target: T4, CDK4/Cyclin D1, full-length …; assay: cell-based or functional assay; remark: listed apart in the source

HAKRRLI[2‑thienylalanine]-NH2 [HAKRRLIX2]
IC50, kinase assay [1]: 3.6 µM

B1: SAKRRL3TA G-OH (peptide)
peptide: SAKRRLXG
HELM: PEPTIDE1{S.A.K.R.R.L.[O=C([C@H](Cc1ccsc1)N[*:1])[*:2]].G}$$$$V2.0; N-terminus assumed
SMILES: CC(C)C[C@H](NC(=O)[C@H](CCCNC(=N)N)NC(=O)[C@H](CCCNC(=N)N)NC(=O)[C@H](CCCCN)NC(=O)[C@H](C)NC(=O)[C@@H](N)CO)C(=O)N[C@@H](Cc1ccsc1)C(=O)NCC(=O)O
notes: C-terminal free acid (-OH); also called SCCP 5814
IC50 [2]: 0.43 µM

{Pyrazole N‑cap (R1 Cl, R2 H, R3 H, R4 CH3, W N, X N, Y C, Z C)}-RLIF (reading uncertain; also: cap structure given only by scaffold parameters) [SCCP 5764 (Pyrazole N-cap ligated to RLIF)]
IC50 [3]: 45 µM
IC50 [4]: 11.9 µM

RXLIF (Cit at position 2 = citrulline; C-terminal amide, also called SCCP 5831) [RCitLIF]
IC50 [5]: 46.5 µM

PAKRRLFG-NH2
IC50, kinase assay [6]: 6.7 µM

HAKRRLI[Ala(2-furyl)]-NH2 [HAKRRLIX1]
IC50, kinase assay (CDK2/E): 1.3 µM
IC50, kinase assay [1]: 6.1 µM

SAKRNLFGM-NH2
IC50, kinase assay [6]: 146 µM

RKLIF (dimethyllysine at position 2 (lysine with the epsilon amino group methylated), also called SCCP 5918) [R(dimethyllys)LIF]
IC50 [5]: 72.2 µM
IC50 [2]: 5.4 µM

XRLIF (Cit at position 1 = citrulline; C-terminal amide, also called SCCP 5812) [CitRLIF]
IC50, kinase assay [6]: 179 µM
IC50 [5]: 72.3 µM

{Triazole N‑cap (R1 H, R2 H, R3 H, R4 H, W N, X N, Y N, Z C)}-RLIF (also: cap structure given only by scaffold parameters) [SCCP 5843 (Triazole N-cap ligated to RLIF)]
IC50 [3]: 48.7 µM
IC50 [4]: 16.2 µM

B2: HAKRRLIX4 (peptide)
peptide: HAKRRLIA
HELM: PEPTIDE1{H.A.K.R.R.L.I.[O=C([C@H](CC1CCC1)N[*:1])[*:2]].[am]}$$$$V2.0; N-terminus assumed
SMILES: CC[C@H](C)[C@H](NC(=O)[C@H](CC(C)C)NC(=O)[C@H](CCCNC(=N)N)NC(=O)[C@H](CCCNC(=N)N)NC(=O)[C@H](CCCCN)NC(=O)[C@H](C)NC(=O)[C@@H](N)Cc1c[nH]cn1)C(=O)N[C@@H](CC1CCC1)C(N)=O
IC50, kinase assay [1]: 25 µM

B3: SCCP 5774 (Triazole N-cap ligated to RLIF) (peptide)
peptide: {Triazole N‑cap, 4‑chlorophenyl triazole (R1 H, R2 Cl, R3 H, R4 CH3, W N, X N, Y N, Z C)}-RLIF
modifications: also: cap structure given only by scaffold parameters
notes: also called 4-chlorophenyl triazole; 4-chloro phenyl triazole
IC50 [7]: 25 µM
IC50 [3]: 11.3 µM
IC50 [4]: 11.5 µM

B4: HAKRRLIX3 (peptide)
peptide: HAKRRLIA
HELM: PEPTIDE1{H.A.K.R.R.L.I.[O=C([C@H](Cc1ccsc1)N[*:1])[*:2]].[am]}$$$$V2.0; N-terminus assumed
SMILES: CC[C@H](C)[C@H](NC(=O)[C@H](CC(C)C)NC(=O)[C@H](CCCNC(=N)N)NC(=O)[C@H](CCCNC(=N)N)NC(=O)[C@H](CCCCN)NC(=O)[C@H](C)NC(=O)[C@@H](N)Cc1c[nH]cn1)C(=O)N[C@@H](Cc1ccsc1)C(N)=O
IC50, kinase assay [1]: 25 µM

B5: SCCP 5852 (Imidazole N-cap ligated to RLIF) (peptide)
peptide: {2‑(3-fluorophenyl)‑1H‑imidazole‑4‑carbonyl}-RLIF
notes: also called 2-(3-fluorophenyl)-1H-imidazole-4-carboxamide
IC50 [3]: 67 µM
IC50 [4]: 34.3 µM

RRLNF (pfF at position 5 = p-fluorophenylalanine; C-terminal amide, also called SCCP 540) [RRLNpfF]
IC50 [5]: 8 µM

{benzoic acid Scaffold III (R1 H, R2 CHEM-US-00025 C6H13NO)}-RLIF (not fully specified (C-terminus); reading uncertain) [SCCP 5851 (benzoic acid N-cap-RLIF)]
fold enhancement of activity vs unsubstituted benzoic acid [8]: 26 fold

B6: SAKRR{bLeu}3TAG-OH (peptide)
peptide: SAKRRLAG
HELM: PEPTIDE1{S.A.K.R.R.[CC(C)C[C@@H](CC(=O)[*:2])N[*:1]].[O=C([C@H](Cc1ccsc1)N[*:1])[*:2]].G}$$$$V2.0; N-terminus assumed
SMILES: CC(C)C[C@@H](CC(=O)N[C@@H](Cc1ccsc1)C(=O)NCC(=O)O)NC(=O)[C@H](CCCNC(=N)N)NC(=O)[C@H](CCCNC(=N)N)NC(=O)[C@H](CCCCN)NC(=O)[C@H](C)NC(=O)[C@@H](N)CO
notes: C-terminal free acid (-OH); also called SCCP 5813
IC50 [2]: 0.31 µM

HAKTRLIF-NH2
IC50, kinase assay [6]: 25 µM
Potency ratio vs native HAKRRLIF [6]: 16.7 ratio
IC50, kinase assay [9]: 50 µM
Potency ratio vs native HAKRRLIF [9]: 38.5 ratio

SAKRALFGM-NH2
IC50, kinase assay [6]: 68 µM

B7: HAKRRLIX7 (peptide)
peptide: HAKRRLIA
HELM: PEPTIDE1{H.A.K.R.R.L.I.[O=C([C@H](Cc1cccnc1)N[*:1])[*:2]].[am]}$$$$V2.0; N-terminus assumed
SMILES: CC[C@H](C)[C@H](NC(=O)[C@H](CC(C)C)NC(=O)[C@H](CCCNC(=N)N)NC(=O)[C@H](CCCNC(=N)N)NC(=O)[C@H](CCCCN)NC(=O)[C@H](C)NC(=O)[C@@H](N)Cc1c[nH]cn1)C(=O)N[C@@H](Cc1cccnc1)C(N)=O
IC50, kinase assay [1]: 29 µM

B8: 1-(3,5-dichlorophenyl)-5-methyl-1H-1,2,4-triazole-3-carbonyl-RLIF (peptide)
peptide: X1-RLIF
notes: also called SCCP 5773; 3,5-dichlorophenyl triazole
IC50 [7]: 12 µM
IC50 [3]: 27 µM
IC50 [4]: 4 µM

Arg-Arg-[β3hL]-{3‑phenoxybenzylamide} [Arg-Arg-β-homoleucyl-3-phenoxybenzylamid]
IC50, kinase assay [6]: 60 µM
Potency ratio [6]: 20.7 ratio
IC50, kinase assay [9]: > 100 µM

{Pyrazole N‑cap (R1 H, R2 H, R3 H, R4 CH3, W N, X N, Y C, Z C)}-RLIF (reading uncertain; also: cap structure given only by scaffold parameters) [SCCP 5762 (Pyrazole N-cap ligated to RLIF)]
IC50 [3]: 53.8 µM

{Pyrazole N‑cap (R1 OCH3, R2 H, R3 H, R4 CH3, W N, X N, Y C, Z C)}-RLIF (reading uncertain; also: cap structure given only by scaffold parameters) [SCCP 5766 (Pyrazole N-cap ligated to RLIF)]
IC50 [4]: 64.1 µM

B9: HAKRRLIX5 (peptide)
peptide: HAKRRLIA
HELM: PEPTIDE1{H.A.K.R.R.L.I.[O=C([C@H](CC1CCCC1)N[*:1])[*:2]].[am]}$$$$V2.0; N-terminus assumed
SMILES: CC[C@H](C)[C@H](NC(=O)[C@H](CC(C)C)NC(=O)[C@H](CCCNC(=N)N)NC(=O)[C@H](CCCNC(=N)N)NC(=O)[C@H](CCCCN)NC(=O)[C@H](C)NC(=O)[C@@H](N)Cc1c[nH]cn1)C(=O)N[C@@H](CC1CCCC1)C(N)=O
IC50, kinase assay [10]: 90 µM
IC50, kinase assay [1]: 20 µM

{Pyrazole N‑cap (R1 F, R2 H, R3 H, R4 CH3, W N, X N, Y C, Z C)}-RLIF (reading uncertain; also: cap structure given only by scaffold parameters) [SCCP 5771 (Pyrazole N-cap ligated to RLIF)]
IC50 [3]: 69.6 µM
IC50 [4]: 29.6 µM

{Pyrazole N‑cap (R1 Cl, R2 H, R3 Cl, R4 CH3, W N, X N, Y C, Z C)}-RLIF (reading uncertain; also: cap structure given only by scaffold parameters) [SCCP 5763 (Pyrazole N-cap ligated to RLIF)]
IC50 [4]: 21.8 µM

HAKRRLI[Cha]-NH2 (not fully specified, also called HAKRRLIX6; HAKRRLI{CHA}) [HAKRRLIR6]
IC50 [5]: 0.26 µM
IC50 [2]: 0.25 µM
IC50, kinase assay [1]: 58 µM

{benzoic acid Scaffold III (R1 H, R2 CHEM-US-00026 C5H12N2)}-RLIF (reading uncertain; also: cap structure given only by scaffold parameters) [SCCP 5850 (benzoic acid N-cap-RLIF)]
fold enhancement of activity vs unsubstituted benzoic acid [8]: 9 fold
